Experimental data reported in patent publication US20050118674A1, “Engineering of Controlled Deamidation Rates in Peptides, Proteins, and Similar Structures” (priority 2003, published 2005).

assay: First-order nonenzymatic deamidation of pentapeptides in Tris buffer; format: physicochemical; details: pH 7.4, 37.0° C., 0.15 M Tris HCl; Asn pentapeptides
Description: One of the discoveries made was that the sequence dependence of deamidation is much richer and covers a wider range than previously thought. In 37° C., pH 7.4, 0.15 M Tris buffer, the combination of XxxAsnYyy and XxxGlnYyy sequences where Xxx and Yyy are any of the naturally occuring amino acids covers a range from less than 1 day to over 15,000 days with the entire range in between available.
It is based on pentapeptide rates measure in 37° C., pH 7.4, 0.15 M Tris buffer. The applicability of a pentapeptide model to sequence dependence was verified in a separate set of experiments. All values listed in this table are experimental except for the four values in boxes, which were estimated from the rest of the data.
It is also based on pentapeptide rates measure in 37° C., pH 7.4, 0.15 M Tris buffer. In this case, the 52 values shown in bold were measured, and the rest of the values were derived from surface fitting.
Deamidation rates are affected by a wide variety of parameters, including, pH, Temperature, Ionic Strength, and Buffer Ions. These rates are measured under pH and Temperature conditions that are applicable to biological systems. The buffer type and concentration were chosen to minimize ion affects to the extent possible given the experimental limitations. Modification of these conditions will change the rates in Tables 1 and 2. As long as the conditions are not taken to extremes (i.e. high temperature, or strongly acidic or basic conditions) the qualitative sequence dependence should remain the same and the rates reported here can be used with necessary adjustments.

Substance	First-Order Deamidation Halftimes of GlyXxxAsnYyyGly [days]
GlyCysAsnMetGly (GCNMG; printed: GlyCysAsnMetGly)	64.5
GlyCysAsnPheGly (GCNFG; printed: GlyCysAsnPheGly)	73.9
GlyCysAsnProGly (GCNPG; printed: GlyCysAsnProGly)	1550
GlyCysAsnSerGly (GCNSG; printed: GlyCysAsnSerGly)	19.0
GlyCysAsnThrGly (GCNTG; printed: GlyCysAsnThrGly)	48.7
GlyCysAsnTrpGly (GCNWG; printed: GlyCysAsnTrpGly)	111
GlyCysAsnTyrGly (GCNYG; printed: GlyCysAsnTyrGly)	83.9
GlyCysAsnValGly (GCNVG; printed: GlyCysAsnValGly)	229
GlyGluAsnAlaGly (GENAG; printed: GlyGluAsnAlaGly)	25.8
GlyGluAsnAmCysGly	32.1
GlyGluAsnArgGly (GENRG; printed: GlyGluAsnArgGly)	80.9
GlyGluAsnAspGly (GENDG; printed: GlyGluAsnAspGly)	32.0
GlyGluAsnCysGly (GENCG; printed: GlyGluAsnCysGly)	44.2
GlyGluAsnGluGly (GENEG; printed: GlyGluAsnGluGly)	60.3
GlyGluAsnGlyGly (GENGG; printed: GlyGluAsnGlyGly)	1.45
GlyGluAsnHisGly (GENHG; printed: GlyGluAsnHisGly)	9.0
GlyGluAsnIleGly (GENIG; printed: GlyGluAsnIleGly)	279
GlyGluAsnLeuGly (GENLG; printed: GlyGluAsnLeuGly)	130
GlyGluAsnLysGly (GENKG; printed: GlyGluAsnLysGly)	77.8

Substance	First-Order Deamidation Halftimes of GlyXxxAsnYyyGly [days]
GlyGluAsnMetGly (GENMG; printed: GlyGluAsnMetGly)	59.6
GlyGluAsnPheGly (GENFG; printed: GlyGluAsnPheGly)	70.2
GlyGluAsnSerGly (GENSG; printed: GlyGluAsnSerGly)	16.4
GlyGluAsnThrGly (GENTG; printed: GlyGluAsnThrGly)	36.8
GlyGluAsnTrpGly (GENWG; printed: GlyGluAsnTrpGly)	98.4
GlyGluAsnTyrGly (GENYG; printed: GlyGluAsnTyrGly)	94.5
GlyGluAsnValGly (GENVG; printed: GlyGluAsnValGly)	268
GlyGlyAsnAlaGly (GGNAG; printed: GlyGlyAsnAlaGly)	21.1
GlyGlyAsnAmCysGly	27.6
GlyGlyAsnArgGly (GGNRG; printed: GlyGlyAsnArgGly)	57.8
GlyGlyAsnAspGly (GGNDG; printed: GlyGlyAsnAspGly)	28.0
GlyGlyAsnCysGly (GGNCG; printed: GlyGlyAsnCysGly)	40.6
GlyGlyAsnGluGly (GGNEG; printed: GlyGlyAsnGluGly)	73.9
GlyGlyAsnGlyGly (GGNGG; printed: GlyGlyAsnGlyGly)	1.03
GlyGlyAsnHisGly (GGNHG; printed: GlyGlyAsnHisGly)	9.2
GlyGlyAsnIleGly (GGNIG; printed: GlyGlyAsnIleGly)	287
GlyGlyAsnLeuGly (GGNLG; printed: GlyGlyAsnLeuGly)	104
GlyGlyAsnLysGly (GGNKG; printed: GlyGlyAsnLysGly)	48.2
GlyGlyAsnMetGly (GGNMG; printed: GlyGlyAsnMetGly)	50.4

same assay, conditions: pH 7.4, 37.0 ° C., 0.15 M Tris HCl; Gln pentapeptides; 52 values measured, rest derived from surface fitting

Substance	First-Order Deamidation Halftimes of GlyXxxGlnYyyGly [days]
GlyCysGlnAlaGly (GCQAG; printed: GlyCysGlnAlaGly)	4100
GlyCysGlnArgGly (GCQRG; printed: GlyCysGlnArgGly)	5100
GlyCysGlnAspGly (GCQDG; printed: GlyCysGlnAspGly)	6100
GlyCysGlnCysGly (GCQCG; printed: GlyCysGlnCysGly)	800
GlyCysGlnGluGly (GCQEG; printed: GlyCysGlnGluGly)	5600
GlyCysGlnGlyGly (GCQGG; printed: GlyCysGlnGlyGly)	560
GlyCysGlnHisGly (GCQHG; printed: GlyCysGlnHisGly)	4200
GlyCysGlnIleGly (GCQIG; printed: GlyCysGlnIleGly)	4900
GlyCysGlnLeuGly (GCQLG; printed: GlyCysGlnLeuGly)	4800
GlyCysGlnLysGly (GCQKG; printed: GlyCysGlnLysGly)	4400
GlyCysGlnMetGly (GCQMG; printed: GlyCysGlnMetGly)	3200
GlyCysGlnPheGly (GCQFG; printed: GlyCysGlnPheGly)	6500
GlyCysGlnProGly (GCQPG; printed: GlyCysGlnProGly)	7100
GlyCysGlnSerGly (GCQSG; printed: GlyCysGlnSerGly)	3800
GlyCysGlnThrGly (GCQTG; printed: GlyCysGlnThrGly)	3500
GlyCysGlnTrpGly (GCQWG; printed: GlyCysGlnTrpGly)	9100
GlyCysGlnTyrGly (GCQYG; printed: GlyCysGlnTyrGly)	7900
GlyCysGlnValGly (GCQVG; printed: GlyCysGlnValGly)	5000

Substance	First-Order Deamidation Halftimes of GlyXxxGlnYyyGly [days]
GlyGluGlnAlaGly (GEQAG; printed: GlyGluGlnAlaGly)	7100
GlyGluGlnArgGly (GEQRG; printed: GlyGluGlnArgGly)	5200
GlyGluGlnAspGly (GEQDG; printed: GlyGluGlnAspGly)	8300
GlyGluGlnCysGly (GEQCG; printed: GlyGluGlnCysGly)	2100
GlyGluGlnGluGly (GEQEG; printed: GlyGluGlnGluGly)	8200
GlyGluGlnGlyGly (GEQGG; printed: GlyGluGlnGlyGly)	750
GlyGluGlnHisGly (GEQHG; printed: GlyGluGlnHisGly)	2500
GlyGluGlnIleGly (GEQIG; printed: GlyGluGlnIleGly)	4200
GlyGluGlnLeuGly (GEQLG; printed: GlyGluGlnLeuGly)	4300
GlyGluGlnLysGly (GEQKG; printed: GlyGluGlnLysGly)	4600
GlyGluGlnMetGly (GEQMG; printed: GlyGluGlnMetGly)	5200
GlyGluGlnPheGly (GEQFG; printed: GlyGluGlnPheGly)	8400
GlyGluGlnProGly (GEQPG; printed: GlyGluGlnProGly)	10000
GlyGluGlnSerGly (GEQSG; printed: GlyGluGlnSerGly)	6100
GlyGluGlnThrGly (GEQTG; printed: GlyGluGlnThrGly)	5400
GlyGluGlnTrpGly (GEQWG; printed: GlyGluGlnTrpGly)	17000
GlyGluGlnTyrGly (GEQYG; printed: GlyGluGlnTyrGly)	13000
GlyGluGlnValGly (GEQVG; printed: GlyGluGlnValGly)	6400
